Consider five molecules from patent publication US20220064282A1 (ZEDA BIOPHARMACEUTICALS, published 2022).

A word on the EC50: it is the concentration needed to bring the measured effect to its halfway point. A lower EC50 goes with higher potency in that assay. The IC50 is the concentration that gives 50% inhibition. A low value points to higher potency. The Kd is the concentration at which binding is half-saturated. The term koff denotes the first-order rate constant of dissociation. As a reminder, the kon is the second-order rate constant of association. High values mean faster complex formation, low ones slower complex formation.

Substitutions are numbered along the chain they refer to.

Experiment [1] addresses T1, IL-1β-his-bio (human, UniProt P01584 117-269, biotinylated, sites not stated).
T1 construct: also called biotinylated IL1b-His
Nature of the experiment: ELISA, IL-1β-his-bio captured on streptavidin plate.

For experiment [2], the target named is T2, IL-1β-hFc (human).
T2 construct: also called IL1b-TEV-hIgG1Fc
Kind of experiment: competition ELISA, IL-1β-hFc coated, competitor IL1RI(1-332)-his at 0.04 µg/ml, anti-His detection. For orientation: An ELISA detects its analyte on a solid surface through an enzyme-linked reagent.

In experiment [3] the target is T3, IL-1β-his (human, UniProt P01584 117-269).
T3 construct: also called IL1b-His; IL-1β-WT-His
Nature of the experiment: ELISA, IL-1β-his coated.

The target of experiment [4] is T2, IL-1β-hFc. Kind of experiment: competition ELISA by the method of Example 6.2, competitor IL1RI.
In experiment [5] the target is T4, IL1β (antigen used as analyte in Biacore) (UniProt P01584 117-269, limits assumed).
T4 construct: also called the antigen
Kind of experiment: SPR (Biacore), antibody captured on Protein A chip, antigen as analyte. For orientation: In SPR one partner is held on a chip, and binding of the other changes the refractive index at the surface.

For experiment [6], the target named is T2, IL-1β-hFc. Nature of the experiment: competition ELISA, IL-1β-hFc coated, competitor IL1RI(1-332)-his, anti-His detection.
The target of experiment [7] is T3, IL-1β-his. Kind of experiment: BLI (Fortebio Octet Qke), antibody immobilised on AR2G sensor, IL1β-his 1.56-100 nM, 1:1 fit.
For experiment [8], the target named is T2, IL-1β-hFc. Kind of experiment: competition ELISA: IL-1β-hFc coated, antibody titrated, IL1RI (1-332)-his as the blocked receptor (Example 12, method of Example 6.2).
In experiment [9] the target is T3, IL-1β-his. Kind of experiment: ELISA on IL-1β-his (Example 11, method of Example 6.1); sample kept at 40 °C for 7 d; Mean, SD 0.001.
Experiment [10] has as its target T3, IL-1β-his. Kind of experiment: ELISA on IL-1β-his (Example 11, method of Example 6.1); sample kept at 40 °C for 28 d; Mean, SD 0.023.
The target in experiment [11] is T3, IL-1β-his. Kind of experiment: ELISA, IL-1β-his coated, antibody titrated (Example 9, method of Example 6.1); Mean, SD 0.000; upper left table.
The target in experiment [12] is T3, IL-1β-his. Nature of the experiment: ELISA, IL-1β-his coated, antibody titrated (Example 9, method of Example 6.1); Mean, SD 0.019; lower left table.
The target in experiment [13] is T3, IL-1β-his. Kind of experiment: ELISA, IL-1β-his coated, antibody titrated (Example 9, method of Example 6.1); Mean, SD 0.000; upper right table.
The target in experiment [14] is T3, IL-1β-his. Nature of the experiment: ELISA, IL-1β-his coated, antibody titrated (Example 9, method of Example 6.1); Mean, SD 0.002; lower right table.

B1: murine antibody KF021ZP4 18H11 (antibody, V domains shown)
VH: EVQLQQSGPELVKTGASVKISCKASGYLFTGYYMHWVKQSHGKSLEWIGFISCYNGDTTYNQKFKDKATFTVDTSSNTAYMQFNSLTSEDSAVYYCSRSDYYGTSDYWGQGTTLTVSS
VL: QIVLTQSPAIMSASPGEKVTITCSASSSVSYMHWFQQKPGTSPKLWIYTTSTLASGVPARFSGSGSGTSYSLTISRMEAEDAATYYCQQRIIYPPTFGGGTKLEIK
notes: Mouse monoclonal antibody from hybridoma supernatant
As to B1, the EC50 in [1] is 174 pM; in experiment [2], 389 pM.

B2: Positive control antibody PcAb (antibody, human IgG1, kappa, V domains shown)
VH: QVQLVESGGGVVQPGRSLRLSCAASGFTFSVYGMNWVRQAPGKGLEWVAIIWYDGDNQYYADSVKGRFTISRDNSKNTLYLQMNGLRAEDTAVYYCARDLRTGPFDYWGQGTLVTVSS
VL: EIVLTQSPDFQSVTPKEKVTITCRASQSIGSSLHWYQQKPDQSPKLLIKYASQSFSGVPSRFSGSGSGTDFTLTINSLEAEDAAAYYCHQSSSLPFTFGPGTKVDIKR
notes: also called KF021ZP4 PcAb; KF021ZP4 PCAb
In the case of B2, the EC50 in experiment [3] was found to be 169 pM; in experiment [1], 62 pM; in [6], 516 pM; in [2], 229 pM. This molecule also gave an IC50 in experiment [4] of 30 pM. Also, the Kd came out at 61.6 pM in [5] and 179 pM in experiment [7]. The koff in [5] stood at 0.000104 s⁻¹; in experiment [7] it was 0.000105 s⁻¹. The kon was 1.69e+06 M⁻¹ s⁻¹ in [5] and 589000 M⁻¹ s⁻¹ in experiment [7]. In addition, the “IC50 (read off the curve)” value in experiment [8] was about 3000 pM.

B3: murine antibody KF021ZP4 9D5 (antibody, V domains shown)
VH: DVQLVESGGGLVQPGGSRKLSCAASGFTFSTFGMHWVRQAPEKGLEWVAYISSGSYTTYYADTVRGRFTISRDNPKNTLFLQMTSLRSEDTAMYYCARDDYDVSNYVMDYWGQGTSVTVSS
VL: DIVLTQSPASLAVSLGQRATISCRASESVEYYGTSLMQWYQQKPGQPPKLLIYAASNVESGVPARFTGSGSGTVFSLNIHPVEEDDIAMYFCQQSRKVPSLTFGAGTKLELK
notes: as for B1
Regarding B3, the half-maximal effective concentration (EC50) in experiment [1] was found to be 36 pM; in experiment [2], 370 pM.

B4: murine antibody KF021ZP4 19E4 (antibody, V domains shown)
VH: B3 VH with T58I, N105Y, V107A
VL: B3 VL with T67S, V74D
notes: as for B1
In the case of B4, the EC50 is 726 pM in experiment [1] and 892 pM in experiment [2].

B5: humanized antibody 18H11 H1L1 (antibody, V domains shown)
VH: QVQLVQSGAEVVKPGASVKISCKASGYLFTGYYMHWVKQAPGKGLEWIGFISCYNGDTTYNQKFQGKATFTVDTSTNTAYMEFNSLTSEDTAVYYCSRSDYYGTSDYWGQGTTLTVSS
VL: EIVLTQSPATMSASPGERVTISCRASSSVSYMHWFQQKPGQAPRLWIYTTSTLATGVPARFSGSGSGTDYTLTISRMEPEDAATYYCQQRIIYPPTFGGGTKLEIKR
Turning to B5, the half-maximal effective concentration (EC50) came to 46 pM in experiment [3]; 76 pM in experiment [9]; 133 pM in experiment [10]; 51 pM in experiment [11]; 74 pM in experiment [12]; 51 pM in experiment [13]. The molecule further showed an EC50 in [14] of 51 pM. This molecule also gave a Kd in experiment [7] of 142 pM.
